According to article PMC3528738 (PLoS ONE, 2012):
Where no end group is shown, it is not given here.

Target: T1, MPERp (HIV-1 (HXBc2 isolate), C-terminal carboxamide)
T1 construct: also called MPER peptide
Experiment: cross-linking; peptides (10 µg) in solution incubated with 20 µM BS3 for 1 h at 37°C, TCA precipitation, Tricine SDS-PAGE; detection by Western blot with MAb2F5 or by NBD fluorescence in the gel
Conditions: both partners purified

T1 sequence (P03375 656-683): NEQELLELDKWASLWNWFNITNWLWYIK

B1: FPp (peptide)
peptide: AVGIGALFLGFLGAAGSTMGARSKKK-NH2
notes: HIV-1 gp160 (gp41 amino-terminal fusion peptide), HXBc2 isolate, residues 512-534; three lysines added at the C-terminus, not of gp160 (printed as 512-534-KKK); C-terminal KKK is added to the natural stretch; also called FP peptide; fusion peptide; source: synthetic peptide (solid-phase synthesis, Fmoc chemistry; purified by HPLC)
- binding result: binds
